Experiment [1] concerns the target rat bone PTH/PTHrP receptor clone R15B (rat). As to the kind of experiment: affinity from competitive radioreceptor assay on COS-7 cells expressing R15B.
Experiment [2] concerns the target human kidney PTH/PTHrP receptor (full-length cDNA HKrk) (human). As to the kind of experiment: competitive radioreceptor assay on COS-7 cells; HKrK against R15B.
For experiment [3] the target is unchanged. The experiment is described as follows: affinity from competitive radioreceptor assay on COS-7 cells expressing HKrK.
The target in experiment [4] is rat bone PTH/PTHrP receptor clone R15B (rat). As to the kind of experiment: apparent Kd, competitive radioreceptor assay on COS-7 cells expressing the rat bone receptor (FIG. 17).
Experiment [5] addresses human kidney PTH/PTHrP receptor (full-length cDNA HKrk) (human). The experiment is described as follows: radioreceptor assay, radiolabelled ligand (~200,000 cpm) on COS-7 cells expressing the human receptor.
In experiment [6] the target is opossum kidney PTH/PTHrP receptor clone OK-H (opossum). The experiment is described as follows: cell-based or functional assay.
The target of experiment [7] is human kidney PTH/PTHrP receptor (full-length cDNA HKrk) (human). The experiment is described as follows: apparent Kd, competitive radioreceptor assay on COS-7 cells expressing the human receptor (FIG. 17).
Experiment [8] shares this target. As to the kind of experiment: competitive radioreceptor assay on COS-7 cells; human receptor against rat bone receptor.
Experiment [9] deals with rat bone PTH/PTHrP receptor clone R15B (rat). The experiment is described as follows: radioreceptor assay, radiolabelled ligand (~200,000 cpm) on COS-7 cells expressing R15B.
For experiment [10], the target named is human kidney PTH/PTHrP receptor (full-length cDNA HKrk) (human). The experiment is described as follows: affinity from competitive radioreceptor assay on COS-7 cells expressing HKrk.
The target is the same in experiment [11]. As to the kind of experiment: competitive radioreceptor assay on COS-7 cells; human receptor against rat receptor.

For “[Nle^8,18, Tyr^34]bPTH(7-34)amide (from UniProt P01268 38-65) (peptide)”, the Kd in experiment [1] is 2000 nM; in [3], 60 nM. This substance gave a fold higher affinity against R15B in experiment [2] of 35 fold.

As for “[Nle^8,18, Tyr^34]bPTH(3-34)amide (from UniProt P01268 34-65) (peptide)”, the Kd in experiment [1] is 45 nM; in experiment [3], 7 nM. In addition, in experiment [2], the fold higher affinity against R15B turned out to be 7 fold.

“[Nle^8,18, Tyr^34]bPTH(1-34)amide (from UniProt P01268 32-65) (peptide)”: the results for the Kd in [4] and in experiment [7] were 10 nM and 5 nM, respectively. Moreover, the specific binding was 10.1% in experiment [5] and 8.1% in [9]. Further, in experiment [6], the concentration of intracellular free calcium (Fura-2) came to 39 nm. The fold difference in apparent Kd against the rat bone PTH/PTHrP receptor in experiment [8] was determined as 2 fold.

As for “[Tyr^36]PTHrP(1-36)amide (from UniProt P12272 37-72) (peptide)”, the Kd in [10] is 35 nM; in experiment [1] it was 10 nM. The substance also yielded a fold lower affinity against the rat receptor in [11] of 2 to 4 fold. The specific binding in experiment [5] was determined as 7.6%; in experiment [9], 7.1%.

(Values after patent publication US20030153041A1.)
